The test system of assay [1] is small clot embolic strokes in rabbits. Description: rabbit small clot embolic stroke model (RSCEM), quantal analysis of behavior. The format is in vivo. The source says: The invention used a rabbit small clot embolic stroke model (RSCEM) that reproduces many facets of human AIS including a well-defined clinical endpoint. The RSCEM utilizes administration of a suspension of small blood clots to induce strokes, and behavioral deficits that can be measured quantitatively. Moreover, the RSCEM is useful to conduct studies testing the effects of single drugs or drug combinations such as a neuroprotective agent (e.g., NXY-059) plus a thrombolytic (Tenecteplase, Alteplase, Desmoteplase and the like). Since it is likely that a drug combination will be used for patient management it is important to determine whether there are any interactions (positive or negative) between the compounds when administered following embolic strokes.
Methods: Male New Zealand white rabbits were anesthetized using halothane (5% induction, 2% maintenance by facemask), the bifurcation of the right carotid artery was exposed and the external carotid was ligated just distal to the bifurcation, where a catheter was inserted into the common carotid and secured with ligatures. The incision was closed around the catheter with the distal ends left accessible outside the neck; the catheter was filled with heparinized saline and plugged with an injection cap. Rabbits were allowed to recover from anesthesia for a minimum of 3 h until they awoke and behaved normally.
For the RSCEM, microclots were prepared from blood drawn from a donor rabbit and allowed to clot at 37° C. All rabbits in the study received injections of the same sized microclots. For embolization, clot particles were rapidly injected through the carotid catheter and both the syringe and catheter were flushed with 5 ml of normal saline. […]
Quantal Dose-Response Analysis: For the RSCEM, a quantal dose-response data analysis technique was used. […] The P50 values are then calculated. […] The data were analyzed using the t-test, which included the Bonferroni correction where appropriate. […]

The test system is the same in assay [2]. Conditions: previous studies; cited from earlier work.

“Also recorded” adds a separate entry of the source.

B1: Tenecteplase: thrombolytic agent supplied by Genentech as a lyophilized cake, the formulation used clinically (protein, UniProt P00750 36-562, looked up, variant T103N N117Q K296A H297A R298A R299A)
Tissue-type plasminogen …: SYQVICRDEKTQMIYQQHQSWLRPVLRSNRVEYCWCNSGRAQCHSVPVKSCSEPRCFNGGTCQQALYFSDFVCQCPEGFAGKCCEIDTRATCYEDQGISYRGNWSTAESGAECTNWQSSALAQKPYSGRRPDAIRLGLGNHNYCRNPDRDSKPWCYVFKAGKYSSEFCSTPACSEGNSDCYFGNGSAYRGTHSLTESGASCLPWNSMILIGKVYTAQNPSAQALGLGKHNYCRNPDGDAKPWCHVLKNRRLTWEYCDVPSCSTCGLRQYSQPQFRIKGGLFADIASHPWQAAIFAAAAASPGERFLCGGILISSCWILSAAHCFQERFPPHHLTVILGRTYRVVPGEEEQKFEVEKYIVHKEFDDDTYDNDIALLQLKSDSSRCAQESSVVRTVCLPPADLQLPDWTECELSGYGKHEALSPFYSERLKEAHVRLYPSSRCTSQHLLNRTVTDNMLCAGDTRSGGPQANLHDACQGDSGGPLVCLNDGRMTLVGIISWGLGCGQKDVPGVYTKVTNYLDWIRDNMRP
Regarding B1, in assay [1] (Tenecteplase 0.9 mg/kg IV bolus, 1 hour following embolization), the P50 worked out at 2.76 ± 0.37 mg. The “increase of P50 over control” value in assay [1] (Tenecteplase 0.9 mg/kg, 1 hour following embolization) turned out to be 130%. In assay [1] (Tenecteplase 0.9 mg/kg, 6 hours following embolization), the “P50 compared to control” value is “did not increase the P50 compared to control; also recorded: neither Tenecteplase, nor NXY-059, significantly (p>0.05) affect P50 values”. In assay [2], the therapeutic window was 3 h.
